B1: Serine protease HTRA3 (Homo sapiens), P83110-2 (parent)
chain: MQARALLLAALAALALAREPPAAPCPARCDVSRCPSPRCPGGYVPDLCNCCLVCAASEGEPCGGPLDSPCGESLECVRGLCRCRWSHAVCGTDGHTYANVCALQAASRRALQLSGTPVRQLQKGACPLGLHQLSSPRYKFNFIADVVEKIAPAVVHIELFLRHPLFGRNVPLSSGSGFIMSEAGLIITNAHVVSSNSAAPGRQQLKVQLQNGDSYEATIKDIDKKSDIATIKIHPKKKLPVLLLGHSADLRPGEFVVAIGSPFALQNTVTTGIVSTAQREGRELGLRDSDMDYIQTDAIINYGNSGGPLVNLDGEVIGINTLKVTAGISFAIPSDRITRFLTEFQDKQIKAPSLAVH
B2: Serine protease HTRA3 (Homo sapiens), P83110-1 (parent)
chain: MQARALLLAALAALALAREPPAAPCPARCDVSRCPSPRCPGGYVPDLCNCCLVCAASEGEPCGGPLDSPCGESLECVRGLCRCRWSHAVCGTDGHTYANVCALQAASRRALQLSGTPVRQLQKGACPLGLHQLSSPRYKFNFIADVVEKIAPAVVHIELFLRHPLFGRNVPLSSGSGFIMSEAGLIITNAHVVSSNSAAPGRQQLKVQLQNGDSYEATIKDIDKKSDIATIKIHPKKKLPVLLLGHSADLRPGEFVVAIGSPFALQNTVTTGIVSTAQREGRELGLRDSDMDYIQTDAIINYGNSGGPLVNLDGEVIGINTLKVTAGISFAIPSDRITRFLTEFQDKQIKDWKKRFIGIRMRTITPSLVDELKASNPDFPEVSSGIYVQEVAPNSPSQRGGIQDGDIIVKVNGRPLVDSSELQEAVLTESPLLLEVRRGNDDLLFSIAPEVVM

Variants of: B1
Conditions: with xiap_human XIAP
Target sequence in this assay (P98170 whole entry): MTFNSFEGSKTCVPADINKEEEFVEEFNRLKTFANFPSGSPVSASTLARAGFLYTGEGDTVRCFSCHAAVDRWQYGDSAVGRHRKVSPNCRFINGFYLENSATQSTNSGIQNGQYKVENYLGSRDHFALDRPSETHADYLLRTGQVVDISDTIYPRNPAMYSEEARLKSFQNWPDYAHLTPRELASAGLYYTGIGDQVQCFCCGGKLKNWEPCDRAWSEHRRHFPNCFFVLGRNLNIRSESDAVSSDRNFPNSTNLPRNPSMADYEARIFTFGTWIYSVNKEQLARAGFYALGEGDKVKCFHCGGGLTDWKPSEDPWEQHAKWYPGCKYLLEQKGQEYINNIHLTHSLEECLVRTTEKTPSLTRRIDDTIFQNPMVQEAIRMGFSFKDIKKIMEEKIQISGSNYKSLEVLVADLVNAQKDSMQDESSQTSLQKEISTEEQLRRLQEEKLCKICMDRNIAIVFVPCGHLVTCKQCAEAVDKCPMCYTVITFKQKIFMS

Row | effect of a mutation on the interaction | Variant
1 | decreasing interaction strength | S305A

Variants of: B2
Conditions: with xiap_human XIAP
Target sequence in this assay (P98170 whole entry): as above

Row | effect of a mutation on the interaction | Variant
2 | decreasing interaction strength | S305A

Reference: IntAct's records for PubMed 31260151
